Measurements as given in doi:10.1101/2025.05.14.654016.

Biological target: LSSmGFP-PRL-3.C104D (human) (UniProt O75365)
Assay: FRET or BRET; in vitro FRET, competition: LSSmGFP-PRL3.C104D (250 nM) preincubated with competitor or test compound 30 min at room temperature, then HA-CBS-mScarlet3 (500 nM); 100 mM NaCl, 20 mM HEPES pH 7.5, 5% glycerol; normalised to DMSO control

Sequence of LSSmGFP-PRL-3.C104D (human) (O75365 whole entry C104D): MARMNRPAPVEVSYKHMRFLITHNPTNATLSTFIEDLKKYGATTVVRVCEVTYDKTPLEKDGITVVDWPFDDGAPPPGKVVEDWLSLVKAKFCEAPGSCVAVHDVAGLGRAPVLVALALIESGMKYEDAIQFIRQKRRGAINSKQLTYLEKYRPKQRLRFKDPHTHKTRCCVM

## PSM-001 (cyclic peptide, PRL substrate mimic) (from UniProt Q8NE01 416-432)
  percent reduction of the FRET signal at 50 μM: 40%
